Assay results from patent US20250341513A1, “Bordetella T Cells Epitopes, Megapools and Uses Thereof” (LA JOLLA INSTITUTE FOR IMMUNOLOGY, priority 2022, published 2025).

B1: BrkA autotransporter (protein, UniProt Q45340 43-1010, looked up)
BrkA autotransporter: QAPQPPVAGAPHAQDAGQEGEFDHRDNTLIAVFDDGVGINLDDDPDELGETAPPTLKDIHISVEHKNPMSKPAIGVRVSGAGRALTLAGSTIDATEGGIPAVVRRGGTLELDGVTVAGGEGMEPMTVSDAGSRLSVRGGVLGGEAPGVGLVRAAQGGQASIIDATLQSILGPALIADGGSISVAGGSIDMDMGPGFPPPPPPLPGAPLAAHPPLDRVAAVHAGQDGKVTLREVALRAHGPQATGVYAYMPGSEITLQGGTVSVQGDDGAGVVAGAGLLDALPPGGTVRLDGTTVSTDGANTDAVLVRGDAARAEVVNTVLRTAKSLAAGVSAQHGGRVTLRQTRIETAGAGAEGISVLGFEPQSGSGPASVDMQGGSITTTGNRAAGIALTHGSARLEGVAVRAEGSGSSAAQLANGTLVVSAGSLASAQSGAISVTDTPLKLMPGALASSTVSVRLTDGATAQGGNGVFLQQHSTIPVAVALESGALARGDIVADGNKPLDAGISLSVASGAAWHGATQVLQSATLGKGGTWVVNADSRVQDMSMRGGRVEFQAPAPEASYKTLTLQTLDGNGVFVLNTNVAAGQNDQLRVTGRADGQHRVLVRNAGGEADSRGARLGLVHTQGQGNATFRLANVGKAVDLGTWRYSLAEDPKTHVWSLQRAGQALSGAANAAVNAADLSSIALAESNALDKRLGELRLRADAGGPWARTFSERQQISNRHARAYDQTVSGLEIGLDRGWSASGGRWYAGGLLGYTYADRTYPGDGGGKVKGLHVGGYAAYVGDGGYYLDTVLRLGRYDQQYNIAGTDGGRVTADYRTSGAAWSLEGGRRFELPNDWFAEPQAEVMLWRTSGKRYRASNGLRVKVDANTATLGRLGLRFGRRIALAGGNIVQPYARLGWTQEFKSTGDVRTNGIGHAGAGRHGRVELGAGVDAALGKGHNLYASYEYAAGDRINIPWSFHAGYRYSF
B2: Fim 2: fimbrial protein 2, aP vaccine antigen (protein, UniProt P05788 27-207, looked up)
Serotype 2 fimbrial subunit: DDGTIVITGTITDTTCVIEDPSGPNHTKVVQLPKISKNALKANGDQAGRTPFIIKLKDCPSSLGNGVKAYFEPGPTTDYSTGDLRAYKMVYATNPQTQLSNITAATEAQGVQVRISNLNDSKITMGANEATQQAAGFDPEVQTGGTSRTVTMRYLASYVKKNGDVEASAITTYVGFSVVYP
B3: pertactin (protein, UniProt P14283 35-910, looked up)
Pertactin autotransporter: DWNNQSIVKTGERQHGIHIQGSDPGGVRTASGTTIKVSGRQAQGILLENPAAELQFRNGSVTSSGQLSDDGIRRFLGTVTVKAGKLVADHATLANVGDTWDDDGIALYVAGEQAQASIADSTLQGAGGVQIERGANVTVQRSAIVDGGLHIGALQSLQPEDLPPSRVVLRDTNVTAVPASGAPAAVSVLGASELTLDGGHITGGRAAGVAAMQGAVVHLQRATIRRGDAPAGGAVPGGAVPGGAVPGGFGPGGFGPVLDGWYGVDVSGSSVELAQSIVEAPELGAAIRVGRGARVTVSGGSLSAPHGNVIETGGARRFAPQAAPLSITLQAGAHAQGKALLYRVLPEPVKLTLTGGADAQGDIVATELPSIPGTSIGPLDVALASQARWTGATRAVDSLSIDNATWVMTDNSNVGALRLASDGSVDFQQPAEAGRFKVLTVNTLAGSGLFRMNVFADLGLSDKLVVMQDASGQHRLWVRNSGSEPASANTLLLVQTPLGSAATFTLANKDGKVDIGTYRYRLAANGNGQWSLVGAKAPPAPKPAPQPGPQPPQPPQPQPEAPAPQPPAGRELSAAANAAVNTGGVGLASTLWYAESNALSKRLGELRLNPDAGGAWGRGFAQRQQLDNRAGRRFDQKVAGFELGADHAVAVAGGRWHLGGLAGYTRGDRGFTGDGGGHTDSVHVGGYATYIADSGFYLDATLRASRLENDFKVAGSDGYAVKGKYRTHGVGASLEAGRRFTHADGWFLEPQAELAVFRAGGGAYRAANGLRVRDEGGSSVLGRLGLEVGKRIELAGGRQVQPYIKASVLQEFDGAGTVHTNGIAHRTELRGTRAELGLGMAAALGRGHSLYASYEYSKGPKLAMPWTFHAGYRYSW
notes: aP vaccine antigen of B. pertussis
B4: Membrane protein insertase YidC (protein, UniProt P65622 1-563, looked up)
Membrane protein insertase …: MDIRRTVLWMIFSFSLLLLWNNWQIHNGKPSLFGGPAPEAAATQQPKADANGTAASSTASIPSSPAAAPAAASVPGAAAPAAAKSEQVVITTDVLRLTFDSNGAQLIRAELLKYPSSSQSDKPTVLMDRSADLVYVAQTGVVGAPQGESFPTHQTPFHLVSSERSLTGDTLDVVFEAESGGLKVTKTYTLHRGRYDVDVRHAMANTGGAPLNPALYLQLERDGTDPAGTSSFYHTFTGVAVYSEQDKFQKVTFSDIEKKKGTYIKQADNGWIGIVQHYFATAWIPAQGKQRTNELLQVQQNLYAARTIEAVGTIAPGSSANVDAHLWVGPQDQKAMAAVAPGLELVVDYGWLTIIAKPLFTLMTWLHGLLGNWGWTIVALTVIIKAVFFPLAAASYRSMARMKQVAPRLQALKEKYGDDRQKLNQAMMEMYRTEKINPLGGCLPMVVQIPVFIALYWVLLASVEMRGAPWILWVHDLSVRDPFFILPAIMMATMFLQIKLNPTPPDPVQAKVMMIMPLVFGGMMFFFPAGLVLYWCVNNTLSIAQQWTITRNLERQAAAAANR
B5: Virulence sensor protein BvgS (protein, UniProt P16575 33-1238, looked up)
Virulence sensor protein BvgS: SQELTLVGKAAVPDVEVALDGDDWRWLARKRVLTLGVYAPDIPPFDVTYGERYEGLTADYMAIIAHNLGMQAKVLRYPTREQALSALESGQIDLIGTVNGTDGRQQSLRLSVPYAADHPVIVMPIGARHVPASNLAGQRLAVDINYLPKETLARAYPQATLHYFPSSEQALAAVAYGQADVFIGDALTTSHLVSQSYFNDVRVVAPAHIATGGESFGVRADNTRLLRVVNAVLEAIPPSEHRSLIYRWGLGSSISLDFAHPAYSAREQQWMADHPVVKVAVLNLFAPFTLFRTDEQFGGISAAVLQLLQLRTGLDFEIIGVDTVEELIAKLRSGEADMAGALFVNSARESFLSFSRPYVRNGMVIVTRQDPDAPVDADHLDGRTVALVRNSAAIPLLQRRYPQAKVVTADNPSEAMLMVANGQADAVVQTQISASYYVNRYFAGKLRIASALDLPPAEIALATTRGQTELMSILNKALYSISNDELASIISRWRGSDGDPRTWYAYRNEIYLLIGLGLLSALLFLSWIVYLRRQIRQRKRAERALNDQLEFMRVLIDGTPNPIYVRDKEGRMLLCNDAYLDTFGVTADAVLGKTIPEANVVGDPALAREMHEFLLTRVAAEREPRFEDRDVTLHGRTRHVYQWTIPYGDSLGELKGIIGGWIDITERAELLRKLHDAKESADAANRAKTTFLATMSHEIRTPMNAIIGMLELALLRPTDQEPDRQSIQVAYDSARSLLELIGDILDIAKIEAGKFDLAPVRTALRVLPEGAIRVFDGLARQKGIELVLKTDIVGVDDVLIDPLRMKQVLSNLVGNAIKFTTEGQVVLAVTARPDGDAAHVQFSVSDTGCGISEADQRQLFKPFSQVGGSAEAGPAPGTGLGLSISRRLVELMGGTLVMRSAPGVGTTVSVDLRLTMVEKSVQAAPPAAATAATPSKPQVSLRVLVVDDHKPNLMLLRQQLDYLGQRVIAADSGEAALALWREHAFDVVITDCNMPGISGYELARRIRAAEAAPGYGRTRCILFGFTASAQMDEAQRCRAAGMDDCLFKPIGVDALRQRLNEAVARAALPTPPSPQAAAPATDDATPTAFSAESILALTQNDEALIRQLLEEVIRTNRADVDQLQKLHQQADWPKVSDMAHRLAGGARVVDAKAMIDTVLALEKKAQGQAGPSPEIDGLVRTLAAQSAALETQLRAWLEQRPHQDQP
B6: Fim 3: fimbrial protein 3, aP vaccine antigen (protein, UniProt P17835 26-204, looked up)
Serotype 3 fimbrial subunit: NDGTIVITGSISDQTCVIEEPSTLNHIKVVQLPKISKNALRNDGDTAGATPFDIKLKECPQALGALKLYFEPGITTNYDTGDLIAYKQTYNASGNGNLSTVSSATKAKGVEFRLANLNGQHIRMGTDKTTQAAQTFTGKVTNGSKSYTLRYLASYVKKPKEDVDAAQITSYVGFSVVYP
B7: S-adenosylmethionine--tRNA ribosyltransferase-isomerase QueA (protein, UniProt Q7VZ81 1-347, looked up)
S-adenosylmethionine:tRNA …: MPTPLTLADFDYHLPPELIAQSPAAERGGSRLLHLDAASRLHDRRFPDLAGLLRPHDLLVFNDTRVIKARLTGQKATGGKVEVLVERITAPDRALAHVRASKSPGPGMRLRLAEAFEAEVLGREGELFDLRFPAPVLDLLDAHGATPLPPYITHAADATDERRYQTVYAREPGAVAAPTAGLHFDQPMLEQLAAQGVQRAFVTLHVGAGTFQPVRVQNLAEHIMHAEWYTVPEATVAAIARARAHGGRIVAVGTTSVRALESAAAQAQDGPLAAAQGDTRLFITPGYRYRAVDALLTNFHLPQSTLLMLVSALAGVEPIRRAYAHAVAERYRFFSYGDAMFIETPAP

Test system: CD4+ T cells
Assay: BP genome-wide peptide library screening by ex vivo AIM assay; epitope and antigen (ORF) reactivity and donor recognition
Type: cell-based, human
Settings: for frequency of donor recognition: entire cohort (n=40); for magnitude, % of total response: sum of reactivity of individual epitopes per ORF/antigen across entire cohort (n=40), FIG. 3; for % of Donor response / % of Total magnitude: immunodominant antigens (ORFs); for % of Donor response: frequency of donors recognising the antigen; for % of Total magnitude: share of total CD4+ T cell response magnitude in the genome-wide screen

Molecule | frequency of donor recognition | magnitude, % of total response | % of Donor response | % of Total magnitude
filamentous hemagglutinin [FHA] | 45.0 % of donors | 2.12 % of total response |  | 
B1 |  |  | 20% | 0.44%
B2 | 5 % of donors | 0.09 % of total response |  | 
B3 | 40 % of donors | 1.33 % of total response |  | 
B4 |  |  | 17.5% | 1.35%
B5 |  |  | 15% | 0.76%
B6 | 12.5 % of donors | 0.24 % of total response |  | 
B7 |  |  | 17.5% | 0.27%
